Assay results from patent US6033847, “InK4c-p18 and InK4d-p19, inhibitors of cyclin-dependent kinases CDK4 and CDK6, and uses thereof” (St. Jude Children's Research Hospital, dated 2000).

T1: cyclin D3 (Mus musculus (Mouse), UniProt P30282)
T1 sequence: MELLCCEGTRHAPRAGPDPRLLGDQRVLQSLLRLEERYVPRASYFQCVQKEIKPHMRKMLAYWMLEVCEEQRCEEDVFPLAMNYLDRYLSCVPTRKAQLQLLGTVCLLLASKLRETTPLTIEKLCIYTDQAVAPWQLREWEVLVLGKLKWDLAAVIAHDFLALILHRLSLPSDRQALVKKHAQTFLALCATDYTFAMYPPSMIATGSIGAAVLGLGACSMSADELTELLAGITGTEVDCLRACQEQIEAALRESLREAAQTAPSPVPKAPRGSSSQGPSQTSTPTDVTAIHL


Columns and labels:
mouse CDK2 = mouse CDK2 (mouse, UniProt P97377-2); assay: GST pull-down of 35S-labelled in vitro translated CDKs
Experimental: (§1) Equal aliquots of the "input" samples shown in lanes 1–6 were incubated with control beads (lanes 7–12) (i.e., GST-Sepharose; GST=glutathione S-transferase) or with beads containing a GST-p19 fusion protein (lanes 13–18), after which the beads were washed, and adsorbed radiolabeled products were separated on gels and autoradiographed. In Panel B, the experiments were performed as in panel A, except that radiolabeled cyclins D2 and D3 were substituted for cdk gene products; the cdk4 gene product was used as a positive control. All autoradiographic exposure times were 15 hrs.
(§2) Human InK4 polypeptides specifically bind to the cyclin D-dependent catalytic subunits, CDK4 and CDK6 (5,18,45). To study the interactions of mouse p19 and p18 with CDKs, cDNAs encoding CDC2 (CDK1) and CDKs 2–6 were transcribed and translated in vitro, and the radiolabeled products were mixed with GST-tagged p19 and p18 fusion proteins adsorbed to glutathione-Sepharose beads or to GST-Sepharose beads as a control.
(§3) Plasmids derived from pBluescript and containing the entire coding sequences of the mouse cdk2, cdk4, cdk5, or cdk6 genes (Matsuoka et al., Mol. Cell. Biol. 14:7265–7275 (1994); Matsushime et al., Cell 71:323–334 (1992)) or human cdc2/cdk1 or cdk3 genes (provided by Drs. Matthew Meyer-son and Edward Harlow (MGH Cancer Center, Cambridge, Mass.)) were transcribed and translated in vitro (Matsuoka et al., Mol. Cell. Biol. 14:7265–7275 (1994)). Mouse cdk6 cDNA was cloned from a mouse macrophage library (Stratagene, La Jolla, Calif.) by screening with a full-length human cdk6 clone (also provided by M. Meyerson and E. Harlow). Following transcription and translation, rabbit reticulocyte lysates containing ^35S-methionine labeled CDKs (20–40 ul) were diluted to 0.5 ml in IP kinase buffer (50 mM Hepes, pH 7.5, containing 150 mM NaCl, 1 mM EDTA, 1 mM DTT, 0.1% Tween-20) containing 10 mg/ml BSA and mixed with 1 ug of purified GST or GST-p19 immobilized on glutathione-Sepharose beads. After 2 hours of incubation at 4° C., beads were collected by centrifugation, washed 4 times in IP kinase buffer, and the bound proteins were denatured and analyzed by electrophoresis on 12.5% polyacrylamide gels containing SDS (Anderson, S. J., et al., J. Virol. 51:730–741 (1984)).

mouse CDK5 = mouse CDK5 (mouse, UniProt P49615); assay: as above
Experimental: as §1, §2, §3

human CDC2 (CDK1) = human CDC2 (CDK1) (human, UniProt P06493); assay: as above
Experimental: as §1, §2, §3

cyclin D2 = cyclin D2 (Mus musculus (Mouse), UniProt P30280); assay: GST pull-down of radiolabelled cyclins D2 and D3
Experimental: as §1, with “Panel A is an autoradiograph of aliquots of the ^35S-methionine-labeled products, derived from the in vitro transcription and translation of plasmids containing CDNA coding sequences of the cdc or cdk gene indicated in the legend below lanes 1–6, separated by electrophoresis on denaturing polyacrylamide gels. Equal” for “Equal”
as §3

cyclin D3 = target: T1, cyclin D3; assay: GST pull-down of radiolabelled cyclins D2 and D3
Experimental: as §1, with “Panel A is an autoradiograph of aliquots of the ^35S-methionine-labeled products, derived from the in vitro transcription and translation of plasmids containing CDNA coding sequences of the cdc or cdk gene indicated in the legend below lanes 1–6, separated by electrophoresis on denaturing polyacrylamide gels. Equal” for “Equal”
as §3

[1] = target: cyclin D1 (endogenous, murine BAC1.2F5 macrophages) (mouse, UniProt P25322); assay: co-immunoprecipitation from lysates of proliferating mouse cells with antiserum to the p19 C-terminus

Binder	binding result (mouse CDK2)	binding result (mouse CDK5)	binding result (human CDC2 (CDK1))	binding result (cyclin D2)	binding result (cyclin D3)	binding result [1]
GST-p19 fusion protein (glutathione S-transferase fused to mouse InK4d-p19) (other) MLLEEVCVGDRLSGARARGDVQEVRRLLHRELVHPDALNRFGKTALQVMMFGSPAVALELLKQGASPNVQDASGTSPVHDAARTGFLDTLKVLVEHGADVNALDSTGSLPIHLAIREGHSSVVSFLAPESDLHHRDASGLTPLELARQRGAQNLMDILQGHMMIPM	no binding (tested: 1 ug on beads)	no binding (tested: 1 ug on beads)	no binding (tested: 1 ug on beads)	no binding	no binding	–
mouse InK4d-p19 (other) MLLEEVCVGDRLSGARARGDVQEVRRLLHRELVHPDALNRFGKTALQVMMFGSPAVALELLKQGASPNVQDASGTSPVHDAARTGFLDTLKVLVEHGADVNALDSTGSLPIHLAIREGHSSVVSFLAPESDLHHRDASGLTPLELARQRGAQNLMDILQGHMMIPM	–	–	–	–	–	no binding
GST-p18 fusion protein (glutathione S-transferase fused to mouse InK4c-p18) (other) MAEPWGNELASAAARGDLEQLTSLLQNNVNVNAQNGFGRTALQVMKLGNPEIARRLLLRGANPNLKDGTGFAVIHDAARAGFLDTVQALLEFQADVNIEDNEGNLPLHLAAKEGHLPVVEFLMKHTACNVGHRNHKGDTAFDLARFYGRNEVISLMEANGVGGATSLQ	no binding	no binding	no binding	no binding	no binding	–
